The test has as its system H441 cells. As to the kind of experiment: Agonist test: H441 cell migration. The class given is cell-based, human. Particulars: Antibody 20 μg/ml; migration affected by HGF (200 ng/ml) set as 100%. The source says:
If anti c-Met antibodies have agonist activity, the migration ability of cells could be affected. The H441 cell line expressing c-Met is used in the invention to evaluate the ability of c-Met antibodies to affect cell migration. H441 cells (ATCC, Cat No.: HTB-174) were resuspended to 500,000 cells/ml in RPMI 1640 medium (GIBCO, Cat No.: 11835-030) which contains 10% (v/v) FBS (GIBCO, Cat No.: 10099-141) and penicillin-streptomycin (GIBCO, Cat No.: 15070-063). The resuspended H441 cells were added to a 12-well culture plate (Costar, Cat No. 3513) at 1 ml/well, and were cultured for 3 days at 37° C. in 5% CO2. Cells were washed twice with PBS, and RPMI 1640 medium containing 0.5% FBS was added, and the plate was cultured for 16 hours at 37° C. in 5% CO2. The bottom of each well was scratched with 5 ml tips, and the plate was washed once with medium containing low concentration of FBS, and 1 ml of RPMI 1640 medium containing a low concentration of serum was added. The plate was marked, photos were taken for randomly selected scratch areas under an inverted microscope at 4× magnification. This time was set as the starting point. […] The percentage of cell migration was measured as the migration distance relative to the starting point divided by the migration distance of the test group relative to the starting point, and then multiplied by 100.

B1: Ab-9: humanized anti c-Met antibody: heavy chain sequence of SEQ ID NO: 23 and light chain sequence of SEQ ID NO: 26 (antibody)
heavy: QVTLKESGPVLVKPTETLTLTCTVSGFSLPNYGVHWVRQPPGKALEWLAVIWSGGSTNYAAAFVSRLRISKDTSKSQVVFTMNNMDPVDTATYYCARNHDNPYNYAMDYWGQGTTVTVSSASTKGPSVFPLAPCSRSTSESTAALGCLVKDYFPEPVTVSWNSGALTSGVHTFPAVLQSSGLYSLSSVVTVPSSNFGTQTYTCNVDHKPSNTKVDKTVERKCCVECPPCPAPPVAGPSVFLFPPKPKDTLMISRTPEVTCVVVDVSHEDPEVQFNWYVDGVEVHNAKTKPREEQFNSTFRVVSVLTVVHQDWLNGKEYKCKVSNKGLPAPIEKTISKTKGQPREPQVYTLPPSREEMTKNQVSLTCLVKGFYPSDIAVEWESNGQPENNYKTTPPMLDSDGSFFLYSKLTVDKSRWQQGNVFSCSVMHEALHNHYTQKSLSLSPGK
light: DIVLTQSPASLAVSPGQRATITCRANKSVSTSTYNYLHWYQQKPGQPPKLLIYLASNLASGVPARFSGSGSGTDFTLTINPVEANDTANYYCQHSRDLPPTFGQGTKLEIKRTVAAPSVFIFPPSDEQLKSGTASVVCLLNNFYPREAKVQWKVDNALQSGNSQESVTEQDSKDSTYSLSSTLTLSKADYEKHKVYACEVTHQGLSSPVTKSFNRGEC
modifications: Ab-9 heavy chain; Ab-9 light chain
As to B1, the “H441 migration (%)” value turned out to be 53%.

The record behind these values is patent US10543284B2, “Anti-c-Met antibody and anti-c-Met antibody-cytotoxic drug conjugate and pharmaceutical use thereof” (Suzhou Suncadia Biopharmaceuticals Co., Ltd., priority 2015, dated 2020).
